From patent US20230165970A1, “COMPOSITIONS AND METHODS FOR THE TREATMENT OF BACTERIAL INFECTIONS” (priority 2017, published 2023)

How the values were obtained:
Test in all cases: MIC assay (broth microdilution, RPMI + 5% LB)
Format in all cases: cell-based
[1] = test system: Escherichia coli BW25113 + pUC18-mcr-1; conditions: assay media RPMI A
From the text: An mcr-1 expression plasmid was constructed (GenScript; Piscataway, N.J.) using the pUC18 high copy number plasmid (Yanisch-Perron, et al., 1985). A 1649-bp fragment was synthesized containing, in order from 5′ to 3′: EcoR1 restriction site (5′-GAATTC-3), a ribosomal binding site (5′-AGGAGG-3′), a 5-bp native start codon upstream sequence (5′-TTCTC-3′) from the mcr-1-bearing plasmid pHNSHP45 (Liu, Y Y, et al., 2015; GenBank Accession #KP347127), the 1626-bp mcr-1 open reading frame with stop codon (“orf00073” of GenBank Accession #KP347127), and finally an Xba1 restriction site sequence (5′-TCTAGA-3′). […] The pUC18-mcr-1 plasmid was transformed into chemically-competent E. coli BW25113 (Coli Genetic Stock Center #7636) as described previously (Chung, et al., PNAS. 1989), recovered for 1 h shaking at 37° C. in Super Optimal broth with Catabolite repression (SOC) media and then aliquots were plated on Luria-Bertani (LB) media containing 100 μg/mL of carbenicillin. Putative transformant colonies were then verified in MIC assays.
(§1) Bacterial strains were stored as glycerol stocks at −80° C. prior to culturing on cation-adjusted Mueller-Hinton agar (MHA; BD cat. no. 211438) at 37° C. Antibacterial activity was assessed against a panel consisting of Escherichia coli, Acinetobacter baumannii, Pseudomonas aeruginosa, and Klebsiella pneumoniae strains (see Table 2).
Briefly, stock solutions of all antibacterial agents were prepared fresh in appropriate solvents (i.e. PBS, pH 7.4. DMSO, DI, etc.). Stock concentrations were made at 50× the highest final assay concentration and serially diluted 2-fold, 8 or 12 times in a 96-well PCR plate (VWR cat. no. 83007-374). Bacterial cell suspensions generated from MHA plate cultures were prepared in 0.85% saline and adjusted to ˜0.1 OD600 nm. […] Later, conjugates 16 and 17, and 20-25 were evaluated in RPMI 1640 medium (+) L-glutamine, (+) sodium bicarbonate, pH 7.4 (“RPMI B”; Gibco, cat. no. 11875-085) as has been described as a more physiologically-relevant media for susceptibility testing of antibacterial compounds. […]

[2] = test system: Escherichia coli BW25113 4X-12 (COL-R; PmrB-Leu10Pro); conditions: assay media RPMI A
Protocol: as §1
(§2) Briefly, stock solutions of all antibacterial agents were prepared fresh in appropriate solvents (i.e. PBS, pH 7.4. DMSO, DI, etc.). Stock concentrations were made at 50× the highest final assay concentration and serially diluted 2-fold, 8 or 12 times in a 96-well PCR plate (VWR cat. no. 83007-374). Bacterial cell suspensions generated from MHA plate cultures were prepared in 0.85% saline and adjusted to ˜0.1 OD600 nm. Next, cell suspensions were diluted 1:200 in RPMI containing 5% Luria Broth (LB) to improve bacterial growth (BD Difco, cat. no. 244620) to a concentration of ˜5×10^5 CFU (colony-forming units)/mL. […] Later, conjugates 16 and 17, and 20-25 were evaluated in RPMI 1640 medium (+) L-glutamine, (+) sodium bicarbonate, pH 7.4 (“RPMI B”; Gibco, cat. no. 11875-085) as has been described as a more physiologically-relevant media for susceptibility testing of antibacterial compounds. Dorschner R A et al., The mammalian ionic environment dictates microbial susceptibility to antimicrobial defense peptides. FASEB J. 20(1):35-42 […]. Ninety-eight microliters of each cell suspension in MHB were added to test wells in a 96-well assay plate (Costar cat. no. 3370). A Beckman Multimek 96 liquid handling robot was used to dispense 2 μL of each 50× stock compound into the plate containing 98 μL of each strain in MHB (2% final solvent concentration). E. coli strains BW25113 and ATCC 25922 were run in the presence and absence of 50% heat-inactivated fetal bovine serum (FBS; Sigma, cat. no. F4135-100 mL). Plates were mixed by shaking then incubated at 37° C. overnight (16-20 h).

[3] = test system: Pseudomonas aeruginosa PAO1; conditions: assay media RPMI A
Protocol: as §1, §2

[4] = test system: Acinetobacter baumannii AB5075; conditions: assay media RPMI A
Protocol: as §1
(§3) Briefly, stock solutions of all antibacterial agents were prepared fresh in appropriate solvents (i.e. PBS, pH 7.4. DMSO, DI, etc.). Stock concentrations were made at 50× the highest final assay concentration and serially diluted 2-fold, 8 or 12 times in a 96-well PCR plate (VWR cat. no. 83007-374). Bacterial cell suspensions generated from MHA plate cultures were prepared in 0.85% saline and adjusted to ˜0.1 OD600 nm. […] Dorschner R A et al., The mammalian ionic environment dictates microbial susceptibility to antimicrobial defense peptides. FASEB J. 20(1):35-42 (2017). Ninety-eight microliters of each cell suspension in MHB were added to test wells in a 96-well assay plate (Costar cat. no. 3370). A Beckman Multimek 96 liquid handling robot was used to dispense 2 μL of each 50× stock compound into the plate containing 98 μL of each strain in MHB (2% final solvent concentration). E. coli strains BW25113 and ATCC 25922 were run in the presence and absence of 50% heat-inactivated fetal bovine serum (FBS; Sigma, cat. no. F4135-100 mL). Plates were mixed by shaking then incubated at 37° C. overnight (16-20 h).

[5] = test system: Acinetobacter baumannii ATCC 19606; conditions: assay media RPMI A
Protocol: as §1, §3

[6] = test system: Escherichia coli ATCC BAA-2469; conditions: assay media RPMI A
Protocol: as §1, §3

Escherichia coli BW25113 = conditions: assay media RPMI A; for MIC Ec BW + FBS: 50% heat-inactivated FBS
[7] = test system: Escherichia coli ATCC 25922; conditions: assay media RPMI A; for MIC Ec 25922 + FBS: 50% heat-inactivated FBS
[8] = test system: Acinetobacter baumannii ATCC 17978; conditions: assay media RPMI A
Protocol: as §1, §2

[9] = test system: Pseudomonas aeruginosa ATCC 27853; conditions: assay media RPMI A
Protocol: as §1, §2

B1: Conjugate 4 (conjugate)
chain: PRGPTIKPCPPCKCPAPNLLGGPSVFIFPPKIKDVLMISLSPIVTCVVVDVSEDDPDVQISWFVNNVEVHTAQTQTHREDYNSTLRVVSALPIQHQDWMSGKEFKCKVNNKDLPAPIERTISKPKGSVRAPQVYVLPPPEEEMTKKQVTLTCMVTDFMPEDIYVEWTNNGKTELNYKNTEPVLDSDGSYFMYSKLRVEKKNWVERNSYSCSVVHEGLHNHHTTKSFSRTPGKHHHHHH
modifications: cyclised or stapled
B1 was tested. Which “MIC Ec BW (mcr-1)” value [1] did it give?
The value was over 128 µg/mL.

And the “MIC Ec BW 4X-12 (COL-R)” value [2]?
Its value is over 128 µg/mL.

What about the “MIC Pa PAO1” value [3] of the same molecule?
Its value is 16 µg/mL.

What about the “MIC Ab AB5075” value [4] of the same molecule?
The value was 32 µg/mL.

What about the “MIC Ab 19606” value [5] of the same molecule?
Its value is 32 µg/mL.

What about the “MIC Ec 2469” value [6] of the same molecule?
Its value is over 128 µg/mL.

What about the “MIC Ec BW” value (Escherichia coli BW25113) of the same molecule?
The value was 32 µg/mL.

And the “MIC Ec BW + FBS” value (Escherichia coli BW25113)?
The value was 32 µg/mL.

What about the “MIC Ec 25922” value [7] of the same molecule?
Its value is over 128 µg/mL.

What about the “MIC Ec 25922 + FBS” value [7] of the same molecule?
The value was 64 µg/mL.

B2: Conjugate 26: "Conjugate of m-IgG2a(His)6 Fc-3 (Int-13)"; SEQ ID NO: 6, procedure uses Int-10, DAR=2/Fc dimer (conjugate)
chain: PRGPTIKPCPPCKCPAPNLLGGPSVFIFPPKIKDVLMISLSPIVTCVVVDVSEDDPDVQISWFVNNVEVHTAQTQTHREDYNSTLRVVSALPIQHQDWMSGKEFKCKVNNKDLPAPIERTISKPKGSVRAPQVYVLPPPEEEMTKKQVTLTCMVTDFMPEDIYVEWTNNGKTELNYKNTEPVLDSDGSYFMYSKLRVEKKNWVERNSYSCSVVHEGLHNHHTTKSFSRTPGKHHHHHH
modifications: conjugated small molecule Int-13, DAR 2
Which “MIC Ec BW (mcr-1)” value [1] does the source give for B2 here?
The value was over 128 µg/mL.

What about the “MIC Ab 17978” value [8] of the same molecule?
The value was 64 µg/mL.

And the “MIC Ec BW 4X-12 (COL-R)” value [2]?
The value was over 128 µg/mL.

And the “MIC Pa 27853” value [9]?
The value was 16 µg/mL.

And the “MIC Pa PAO1” value [3]?
Its value is 64 µg/mL.

And the “MIC Ab AB5075” value [4]?
The value was 32 µg/mL.

And the “MIC Ab 19606” value [5]?
The value was 128 µg/mL.

And the “MIC Ec 2469” value [6]?
The value was 32 µg/mL.

And the “MIC Ec BW” value (Escherichia coli BW25113)?
The value was 16 µg/mL.

And the “MIC Ec BW + FBS” value (Escherichia coli BW25113)?
The value was 32 µg/mL.

And the “MIC Ec 25922” value [7]?
Its value is over 128 µg/mL.

What about the “MIC Ec 25922 + FBS” value [7] of the same molecule?
Its value is 128 µg/mL.

B3: Conjugate 15 (conjugate)
chain: PRGPTIKPCPPCKCPAPNLLGGPSVFIFPPKIKDVLMISLSPIVTCVVVDVSEDDPDVQISWFVNNVEVHTAQTQTHREDYNSTLRVVSALPIQHQDWMSGKEFKCKVNNKDLPAPIERTISKPKGSVRAPQVYVLPPPEEEMTKKQVTLTCMVTDFMPEDIYVEWTNNGKTELNYKNTEPVLDSDGSYFMYSKLRVEKKNWVERNSYSCSVVHEGLHNHHTTKSFSRTPGKHHHHHH
modifications: cyclised or stapled
What does the source list for B3?
MIC Ec BW (mcr-1) [1]: >128 µg/mL; MIC Ec BW 4X-12 (COL-R) [2]: >128 µg/mL; MIC Pa PAO1 [3]: 16 µg/mL; MIC Ab AB5075 [4]: >128 µg/mL; MIC Ab 19606 [5]: >128 µg/mL; MIC Ec 2469 [6]: >128 µg/mL; MIC Ec BW (Escherichia coli BW25113): >128 µg/mL; MIC Ec BW + FBS (Escherichia coli BW25113): >128 µg/mL; MIC Ec 25922 [7]: >128 µg/mL; MIC Ec 25922 + FBS [7]: >128 µg/mL
